Assay results published in patent US20040132073A1 (Takeda / Millennium, published 2004).
Ends that are not written are not given here.

Legend:
[1] = target: human G protein-coupled receptor protein hOT7T022 (human, UniProt Q9GZQ6 1-430); experiment: cell-based or functional assay
[2] = target: rat G protein-coupled receptor protein rOT7T022L (rat, UniProt Q9EP86 1-432); experiment: cell-based or functional assay
Chain of rat G protein-coupled receptor protein rOT7T022L (Q9EP86 whole entry): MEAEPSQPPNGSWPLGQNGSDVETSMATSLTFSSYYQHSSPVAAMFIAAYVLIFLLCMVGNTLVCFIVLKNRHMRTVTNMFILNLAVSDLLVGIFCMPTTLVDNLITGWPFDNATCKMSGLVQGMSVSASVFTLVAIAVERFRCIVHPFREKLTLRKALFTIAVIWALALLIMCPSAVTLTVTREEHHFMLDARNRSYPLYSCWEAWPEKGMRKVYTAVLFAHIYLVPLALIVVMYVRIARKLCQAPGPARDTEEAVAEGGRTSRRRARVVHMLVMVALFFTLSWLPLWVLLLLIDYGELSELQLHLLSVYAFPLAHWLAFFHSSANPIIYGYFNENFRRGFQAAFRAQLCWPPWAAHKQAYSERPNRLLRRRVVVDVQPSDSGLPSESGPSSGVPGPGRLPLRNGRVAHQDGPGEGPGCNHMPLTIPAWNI

Chain of human G protein-coupled receptor protein hOT7T022 (Q9GZQ6 whole entry): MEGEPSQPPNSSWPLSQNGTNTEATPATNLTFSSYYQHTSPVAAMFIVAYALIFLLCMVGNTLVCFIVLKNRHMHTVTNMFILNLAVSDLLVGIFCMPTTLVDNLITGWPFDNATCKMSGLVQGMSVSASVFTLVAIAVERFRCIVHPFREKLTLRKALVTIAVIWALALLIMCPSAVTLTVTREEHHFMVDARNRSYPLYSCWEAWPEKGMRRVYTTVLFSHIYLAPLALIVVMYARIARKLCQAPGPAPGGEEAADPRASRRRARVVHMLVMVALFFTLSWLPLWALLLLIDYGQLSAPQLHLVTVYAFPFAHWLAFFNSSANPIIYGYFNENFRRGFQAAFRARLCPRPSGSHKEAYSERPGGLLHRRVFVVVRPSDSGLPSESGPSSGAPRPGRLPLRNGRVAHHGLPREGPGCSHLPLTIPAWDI

Row | Binder | ED50, inhibition of the increased cAMP level in the cells by the forskolin treatment [1] [nM] | IC50 of cAMP production suppression (forskolin-stimulated cells, cAMP EIA) [2] [nM]
1 | SVTFQELKDWGAKKDIKMSPAPANKVPHSAANLPLRF (ends and bridges not checked) [rRFRP-1-37 (peptide having the 58 (Ser) to 94 (Phe) amino acid sequence in SEQ ID NO: 50)] | 30 | 
2 | PQRF-NH2 [PQRFamide (peptide shown by Pro-Gln-Arg-Phe-NH2)] | ≥ 1000 | 
3 | SLNFEELKDWGPKNVIKMSTPAVNKMPHSFANLPLRF-NH2 [hRFRP-1-37 (peptide having the 56 (Ser) to 92 (Phe) amino acid sequence in SEQ ID NO: 1)] | 21 | 
4 | MPHSFANLPLRF-NH2 [peptide MPHSFANLPLRFamide (SEQ ID NO: 39)] | 4.5 | 0.5
